Experiments:
HLA-A2.1 = HLA-A2.1 (Homo sapiens, UniProt P04439, D140Y/D185E/D98H/E176V/E277Q/G131W/G231S/I119V/I121R/I166T/I218V/L300P/L318F/N151K/N90K/P208A/P217A/Q86G/Q94H/R138H/R169H/T345S); assay: HLA-A*0201 binding assay (stabilization of surface HLA-A2.1 on T2 cells, flow cytometry); conditions: for binding to HLA-A2.1: T2 cells, peptide 6.25-800 μg/ml, compared with control peptides
HLA-A1+ CD8+ T cells = assay: gamma-IFN-based ELISPOT assay; assay type: cell-based, human; conditions: IFN production blocked by anti-HLA-A1 monoclonal antibody
Method: The wells of a nitrocellulose-backed microtiter plate were coated with capture antibody by incubating overnight at 4° C. using 50 μl/well of 4 μg/ml murine anti-human −IFN monoclonal antibody in coating buffer (35 mM sodium bicarbonate, 15 mM sodium carbonate, pH 9.5). Unbound antibody was removed by washing 4 times 5 min. with PBS. Unbound sites on the membrane then were blocked by adding 200 μl/well of RPMI medium with 10% serum and incubating 1 hr. at room temperature. Antigen stimulated CD8^+ T cells, in 1:3 serial dilutions, were seeded into the wells of the microtiter plate using 100 μl/well, starting at 2×10^5 cells/well. […] Following this incubation the plates were washed with 6 times 200 μl/well of PBS containing 0.05% Tween-20 (PBS-Tween). Detection antibody, 50 μl/well of 2 μg/ml biotinylated murine anti-human −IFN monoclonal antibody in PBS+10% fetal calf serum, was added and the plate incubated at room temperature for 2 hrs. Unbound detection antibody was removed by washing with 4 times 200 μl of PBS-Tween. 100 μl of avidin-conjugated horseradish peroxidase (Pharmingen, San Diego, Calif.) was added to each well and incubated at room temperature for 1 hr. Unbound enzyme was removed by washing with 6 times 200 μl of PBS-Tween. […] The plate was air dried and the spots counted using a stereomicroscope.
No reactivity is detected from cultures without peptide (data not shown).

peptide pulsed T2 cells = assay: Epitope specific lysis by CTL from peptide-immunized HHD-A2 mice; assay type: in vivo; conditions: HHD-A2 mice immunized with peptide in complete Freund's adjuvants, spleen cells re-stimulated in vitro; HLA-A2+ T2 targets
Description: HHD-A2 mice were immunized with ED-B29-38 (SEQ ID NO. 103) in complete Freund's adjuvants and spleen cells were harvested and re-stimulated in vitro using standard methodology.

[1] = target: T1, HLA-A2.1 (HLA-A*0201) on T2 cells (human); assay: T2 cell HLA-A2.1 stabilisation, flow cytometry with FITC anti-HLA-A2
T1 construct: MHC class I molecule on T2 cells; also called HLA-A2+ T2 cells

Molecule | binding to HLA-A2.1 (HLA-A2.1) | other results
RMMNDQLMFL (Homo sapien) [SEQ ID NO 40] | significant binding at even lower concentrations than the positive control peptide | binding activity / affinity by comparison to the controls (HLA-A2.1; not run in parallel): approaches the Melan A peptide in affinity
TLRVDCTPL (Homo sapien) [SEQ ID NO 32] | binds nearly as well | –
GMPEGDLVYV (Homo sapien) [SEQ ID NO 6] | significant binding at even lower concentrations than the positive control peptides | –
GLPSIPVHPI (Homo sapien) [SEQ ID NO 21] | significant binding at even lower concentrations than the positive control peptides | –
RVDCTPLMY [SEQ ID NO 35] | – | HLA restriction of the response (HLA-A1+ CD8+ T cells): HLA-A1-restricted response
MMNDQLMFL [SEQ ID NO 39] | significant binding at even lower concentrations than the positive control peptide | –
TIIGYRITVV (Homo sapien) [SEQ ID NO 103] | – | epitope specific lysis by CTL (peptide pulsed T2 cells): able to specifically lyse peptide pulsed T2 cells
MMNDQLMFL [PSMA663-671] | – | binding result [1]: binds

— patent US7252824B2, “Anti-neovasculature preparations for cancer” (Mannkind Corporation, priority 2001, dated 2007)
